# Assay results published in publication PMC5271678.
# Tested on: GST-CELF1 (recombinant human CELF1) (Homo sapiens)
# Assay: EMSA
# Conditions: 3 fmol RNA with increasing GST-hCELF1, 5% native polyacrylamide gel; buffer, salt, pH and temperature not given (cited ref 31)
row,Substance,Kd
1,7SL RNA fragment (negative control),> 300 nM
2,Srp9 3'UTR fragment,0.84 nM
3,Srp14 3'UTR fragment,12.4 nM
4,Srp19 3'UTR fragment,33.8 nM
5,Srp54 3'UTR fragment,13.5 nM
6,Srp68 3'UTR fragment,1.64 nM
7,Srp72 3'UTR fragment,0.53 nM
